Experiments:
[1] = biological target: [γ-32P]GTP·GST-RhoA (human) (UniProt P61586); experiment: cell-based or functional assay
[2] = test system: [Ser^46] PKN (39-53) peptide

[γ-32P]GTP·GST-RhoA (human), sequence (P61586 whole entry): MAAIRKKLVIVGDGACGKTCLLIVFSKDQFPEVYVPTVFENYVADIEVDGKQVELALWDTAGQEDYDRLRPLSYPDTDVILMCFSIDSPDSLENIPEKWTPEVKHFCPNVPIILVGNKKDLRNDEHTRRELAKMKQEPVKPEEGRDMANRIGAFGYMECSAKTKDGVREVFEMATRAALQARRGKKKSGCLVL

half life of GTP bound to RhoA (endogenous GTPase activity) [1] [min]	Substance	Km (phosphorylation of the peptide by PKN) [2]
> 15	GST-PKN (N-terminal region of human PKN, amino acid sequence 1-538, fused to GST) (from UniProt Q16512 1-538)	–
–	PKN purified from rat testis cytosol	a Km of approximately 25 µM

Reference: patent US6660837
